# Changes are numbered by the printed parent chain.
# T1: human gc chain mutant, KEI replaced by Ala (Domain 1 Loop EF), myc-tagged, on COS-7 cells (human, UniProt P31785 23-369)
# T1 construct: whole, on cells; not shown: 9 amino acid myc tag at the 5' end of the construct
# T1 sequence (looked up): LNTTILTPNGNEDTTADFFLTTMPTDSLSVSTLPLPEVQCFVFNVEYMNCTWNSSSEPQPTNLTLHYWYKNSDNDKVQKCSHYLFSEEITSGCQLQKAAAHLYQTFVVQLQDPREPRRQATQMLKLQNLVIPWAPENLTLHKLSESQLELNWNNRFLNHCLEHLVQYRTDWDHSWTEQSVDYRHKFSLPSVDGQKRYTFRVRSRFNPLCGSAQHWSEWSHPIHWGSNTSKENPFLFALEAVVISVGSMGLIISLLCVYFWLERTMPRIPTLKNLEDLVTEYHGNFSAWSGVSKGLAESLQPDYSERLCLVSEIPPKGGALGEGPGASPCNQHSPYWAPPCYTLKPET
# T2: human gc chain mutant, LYQ replaced by Ala (Domain 1 Loop EF), myc-tagged, on COS-7 cells (human, UniProt P31785 23-369)
# T2 construct: whole, on cells; not shown: 9 amino acid myc tag at the 5' end of the construct
# T2 sequence (looked up): T1 sequence (looked up) with A98K, A99E, A100I, L102A, Y103A, Q104A
# T3: human gc chain mutant, NLV replaced by Ala (interdomain residues), myc-tagged, on COS-7 cells (human, UniProt P31785 23-369)
# T3 construct: whole, on cells; not shown: 9 amino acid myc tag at the 5' end of the construct
# T3 sequence (looked up): T1 sequence (looked up) with A98K, A99E, A100I, N128A, L129A, V130A
# T4: human gc chain mutant, HCL replaced by Ala (Domain 2 Loop BC), myc-tagged, on COS-7 cells (human, UniProt P31785 23-369)
# T4 construct: whole, on cells; not shown: 9 amino acid myc tag at the 5' end of the construct
# T4 sequence (looked up): T1 sequence (looked up) with A98K, A99E, A100I, H159A, C160A, L161A
# T5: human gc chain mutant, PL replaced by Ala (Domain 2 Loop FQ), myc-tagged, on COS-7 cells (human, UniProt P31785 23-369)
# T5 construct: whole, on cells; not shown: 9 amino acid myc tag at the 5' end of the construct
# T5 sequence (looked up): T1 sequence (looked up) with A98K, A99E, A100I, P207A, L208A
# T6: human gc chain mutant, SAQ replaced by Ala (Domain 2 Loop FQ), myc-tagged, on COS-7 cells (human, UniProt P31785 23-369)
# T6 construct: whole, on cells; not shown: 9 amino acid myc tag at the 5' end of the construct
# T6 sequence (looked up): T1 sequence (looked up) with A98K, A99E, A100I, S211A, Q213A
# B1: CP.B8 monoclonal antibody (murine anti-human gc chain, hybridoma ATCC HB-12107) (antibody, V domains shown)
# VH: LQESGPGLVAPSQSLSITCTVSGFSLTSYGVHWVRQPPGKGLEWLGVIWAGGSTNYNSALMSRLNINRDNSKSQIFLKMNSLQTDDTAIYYCAREGSTVDSMDYWGQGTTVT
# VL: DIVMTQSHKFMSTSVGDSITITCKASQDVTTAVAWYQQKPGQSPKLLIYWASTRHTGVPDRFTGSGSGTDYTLTISSVQAEDLALYYCQQHYITPWTFGGGTKLEI
# notes: Used unconjugated and biotin-conjugated; also called CP.B8 mAb; mAb CP.B8
# Experiments:
# Experiment in all cases: staining of transfected COS-7 cells, FACS
# [1] = biological target: T1, human gc chain mutant, KEI replaced by …
# Description: (§1) COS-7 cells are transiently transfected with 20 ug of DNA encoding the gc chain mutant or wildtype cDNA and 180 ug of herring sperm carrier DNA. After 2-3 days, COS-7 cells are harvested and analyzed by immnunofluorescent staining with anti-gc chain mAbs. MAbs are used at 10 ug/ml in PBS-1% BSA-0.02% sodium azide and allowed 30 minutes to bind to 1×10⁶ COS-7 cells. Cells are then washed 2 times, and bound mAb is detected with PE-conjugated goat anti-mouse Fc specific antibodies. The % of positive cells staining with the anti-gc chain mAb over an irrelevant control Ig is determined for a given gc chain mutant and for wildtype gc chain. […] Data are adjusted for any differences in level of expression of a mutant vs. wildtype constructs by measuring the binding of a mAb specific for a 9 amino acid myc tag engineered at the 5′ end of each gc chain construct. […] Values reduced from 100% indicate amino acid mutations which affect mAb binding.
# (§2) The value “100%” indicates no effect of mutation and lower percentages indicate greater losses in binding as a result of the sequence change.
# [2] = biological target: T2, human gc chain mutant, LYQ replaced by …
# Description: as §1, §2
# [3] = biological target: T3, human gc chain mutant, NLV replaced by …
# Description: as §1, §2
# [4] = biological target: T4, human gc chain mutant, HCL replaced by …
# Description: as §1, §2
# [5] = biological target: T5, human gc chain mutant, PL replaced by …
# Description: as §1, §2
# [6] = biological target: T6, human gc chain mutant, SAQ replaced by …
# Description: as §1, §2
binder,measurement,setting,value
B1,% binding to mutant gc chain/wildtype gc chain,[1],2%
same,% binding to mutant gc chain/wildtype gc chain,[2],13%
same,% binding to mutant gc chain/wildtype gc chain,[3],0%
same,% binding to mutant gc chain/wildtype gc chain,[4],8%
same,% binding to mutant gc chain/wildtype gc chain,[5],86%
same,% binding to mutant gc chain/wildtype gc chain,[6],111%

# — patent publication US20020028202A1 (Biogen, published 2002)
